This data set deals with the molecule itself. Put plainly: SEC.

By stoichiometry N is commonly meant the number of molecules, sites or subunits per partner or assembly.

B1: Sec18_(His8) (natural protein, yeast, UniProt P18759 1-758, looked up)
chain: MFKIPGFGKAAANHTPPDMTNMDTRTRHLKVSNCPNNSYALANVAAVSPNDFPNNIYIIIDNLFVFTTRHSNDIPPGTIGFNGNQRTWGGWSLNQDVQAKAFDLFKYSGKQSYLGSIDIDISFRARGKAVSTVFDQDELAKQFVRCYESQIFSPTQYLIMEFQGHFFDLKIRNVQAIDLGDIEPTSAVATGIETKGILTKQTQINFFKGRDGLVNLKSSNSLRPRSNAVIRPDFKFEDLGVGGLDKEFTKIFRRAFASRIFPPSVIEKLGISHVKGLLLYGPPGTGKTLIARKIGTMLNAKEPKIVNGPEILSKYVGSSEENIRNLFKDAEAEYRAKGEESSLHIIIFDELDSVFKQRGSRGDGTGVGDNVVNQLLAKMDGVDQLNNILVIGMTNRKDLIDSALLRPGRFEVQVEIHLPDEKGRLQIFDIQTKKMRENNMMSDDVNLAELAALTKNFSGAEIEGLVKSASSFAINKTVNIGKGATKLNTKDIAKLKVTREDFLNALNDVTPAFGISEEDLKTCVEGGMMLYSERVNSILKNGARYVRQVRESDKSRLVSLLIHGPAGSGKTALAAEIALKSGFPFIRLISPNELSGMSESAKIAYIDNTFRDAYKSPLNILVIDSLETLVDWVPIGPRFSNNILQMLKVALKRKPPQDRRLLIMTTTSAYSVLQQMDILSCFDNEIAVPNMTNLDELNNVMIESNFLDDAGRVKVINELSRSCPNFNVGIKKTLTNIETARHDEDPVNELVELMTQSA
Take B1: the “stoichiometry N” value was determined as 6.

(Values after paper doi:10.1101/365775 (bioRxiv, 2018).)
